Assay results: the supplement of paper PMC10567573

B1: PPEF2 (parent)
chain: DHSGFISLDEFRQTWKLFSSHMNI

Variants of: B1
Test: protein stability index of a GFP-peptide fusion (GPS, HEK-293T) (PSI 1-6); higher = more stable
Conditions: c terminus: a fixed tail appended
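Note: lentivirally expressed fusions sorted by FACS into six bins by GFP to DsRed ratio, PSI derived from sequencing read proportions per bin multiplied by bin number.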

Protein stability index, by site and new letter:
W15: C 2.39 | T 2.58 | F 2.07 | R 1.62 | K 2.36 | E 1.96 | D 2.3 | L 1.88 | Y 2.15 | N 2.06 | Q 2.25 | A 1.67 | I 1.77 | V 2.1 | M 2.79 | H 1.76 | S 1.81 | P 1.81 | G 1.84
T14: D 1.71 | K 1.93 | L 1.66 | V 1.93 | S 2.14 | Y 1.49 | F 1.83 | G 1.69 | W 1.39 | M 1.85 | C 2.88 | N 1.91 | R 2.38 | I 1.83 | A 2 | Q 2.08 | P 2.17 | H 2 | E 1.87
R12: L 1.53 | W 2.39 | E 1.62 | D 2.06 | S 2.04 | Q 1.38 | N 1.81 | H 1.86 | G 2.79 | A 1.87 | T 2.98 | V 2.88 | Y 2.69 | I 2.73 | P 1.61 | K 1.89 | M 2.38 | F 3.28 | C 1.74
L17: T 1.88 | W 1.29 | Y 2.03 | R 1.62 | D 2.27 | S 2 | H 1.66 | C 1.59 | A 2.07 | Q 1.58 | F 3.02 | P 1.55 | N 1.87 | K 1.81 | M 2.63 | G 1.5 | I 3.24 | E 2.11 | V 1.36
S19: A 1.56 | F 2.32 | C 1.54 | P 1.82 | I 2.22 | N 1.07 | L 1.46 | G 1.81 | M 1.78 | E 1.3 | K 1.85 | H 1.88 | D 1.56
E10: K 1.79 | R 1.6 | D 1.71 | L 2.49 | P 2.26 | W 1.87 | F 1.72 | Q 1.96 | N 2.85 | S 1.35 | C 1.95 | A 2.48 | H 2.25 | T 2.37 | M 2.26 | Y 1.82 | G 1.26 | I 1.58 | V 2.88
S3: W 1.8 | C 1.81 | A 1.92 | I 1.84 | E 2.17 | D 2 | G 1.97 | V 1.46 | Q 1.85 | Y 2.27 | H 1.69 | N 1.99 | M 1.69 | K 2.47 | T 2.62 | F 2.23 | R 2.58 | P 1.91 | L 2.07
S7: G 2.95 | L 1.83 | D 1.47 | I 2.44 | W 2.08 | A 2.06 | H 1.83 | Y 1.97 | E 1.86 | Q 1.79 | R 2.1 | C 2.37 | P 1.44 | F 2.52 | N 2.06 | T 2.04 | M 2.3 | K 1.69
K16: I 3.37 | H 1.74 | R 2.02 | C 2.15 | L 3.93 | Y 3.45 | E 1.73 | Q 1.74 | P 2.07 | D 1.71 | M 1.01 | T 3.38 | N 1.69 | W 3.62 | A 1.88 | S 1.81 | V 2.6 | G 1.32 | F 1.94
L8: T 2.09 | Q 2.01 | R 1.93 | N 1.62 | P 1.9 | M 1.88 | Y 1.87 | G 2.13 | C 1.71 | H 2.44 | F 2.59 | K 1.97 | D 2.13 | S 1.75 | E 1.85 | V 2.74 | W 2.06 | A 1.62 | I 2.24
F5: H 1.77 | D 1.41 | W 1.93 | R 1.28 | M 1.4 | V 1.53 | Q 1.73 | E 1.65 | L 1.92 | Y 2.35 | A 1.33 | G 2.5 | N 2.13 | I 1.86 | T 1.54 | P 2.12 | C 1.66 | K 1.52 | S 1.85
Q13: A 1.73 | D 1.61 | P 2.35 | N 2.65 | K 1.68 | S 2.13 | W 2.52 | G 1.96 | L 3.59 | R 2.03 | H 1.87 | I 3.27 | T 3.18 | F 3.91 | Y 1.45 | V 2.95 | M 3.2 | E 2.36
I6: W 1.82 | K 1.94 | D 1.62 | H 1.71 | L 1.65 | N 1.6 | Y 1.89 | E 1.66 | R 2.08 | S 1.75 | F 1.03 | V 1.41 | G 1.28 | C 1.86 | A 1.39 | M 2.32 | Q 1.91 | T 1.71 | P 2.02
F18: A 1.96 | D 2.57 | I 2.51 | N 2.12 | E 1.88 | V 1.91 | Q 1.72 | H 1.55 | W 1.87 | S 2.14 | C 2.02 | K 2.21 | M 1.64 | G 2.48 | R 1.8 | L 1.46 | Y 2.56 | P 1.96 | T 1.82
H2: G 1.43 | L 1.25 | F 1.9 | V 1.45 | R 1.34 | Q 1.75 | T 1.72 | S 1.92 | A 2.35 | M 3.51 | P 2.32 | N 1.14 | Y 2.11 | K 2.01 | I 1.91 | D 1.86 | C 1.75 | W 1.82 | E 1.44
G4: Q 2.47 | M 1.65 | S 1.51 | V 3.22 | W 1.98 | R 1.87 | D 1.78 | F 2.5 | T 1.95 | C 2.41 | P 1.98 | I 2.78 | E 2.16 | H 2.28 | K 1.31 | N 2.69 | Y 2.27 | L 2.95 | A 2.89
D9: Y 1.51 | P 1.21 | A 3.05 | R 1.92 | V 2.94 | I 3.32 | L 3.39 | S 1.84 | W 2.75 | G 2.82 | N 1.51 | M 2.67 | E 2.29 | Q 2.2 | T 2.24 | H 1.87 | C 2.73 | K 2.1 | F 2.48
F11: L 3.54 | V 2.07 | E 2.37 | R 2.01 | P 1.85 | S 1.68 | G 2.52 | I 1.79 | M 2.14 | C 1.94 | H 1.95 | Y 2.19 | D 1.61 | T 1.74 | Q 1.56 | K 1.64 | A 1.32 | N 1.51 | W 1.64
